According to US20220042033A1, “COMPOSITION AND METHOD FOR CONFERRING AND/OR ENHANCING TOLERANCE AGAINST HERBICIDES BY USING VARIANTS OF PPO” (FarmHannong Co., Ltd., priority 2017, published 2022):
Where a chain is given by its changes, count along the chain named. Numbers in names are those of the source.

B1: A170L: MxPPO (SEQ ID NO: 3) variant (protein)
chain: MHHMPRTTGMNVAVVGGGISGLAVAHHLRSRGTDAVLLESSARLGGAVGTHALAGYLVEQGPNSFLDREPATRALAAALNLEGRIRAADPAAKRRYVYTRGRLRSVPASPPAFLASDILPLGARLRVAGELFSRRAPEGVDESLAAFGRRHLGHRATQVLLDAVQTGIYLGDVEQLSVAATFPMLVKMEREHRSLILGAIRAQKAQRQAALPAGTAPKLSGALSTFDGGLQVLIDALAASLGDAAHVGARVEGLAREDGGWRLIIEEHGRRAELSVAQVVLAAPAHATAKLLRPLDDALAALVAGIAYAPIAVVHLGFDAGTLPAPDGFGFLVPAEEQRRMLGAIHASTTFPFRAEGGRVLYSCMVGGARQPGLVEQDEDALAALAREELKALAGVTARPSFTRVFRWPLGIPQYNLGHLERVAAIDAALQRLPGLHLIGNAYKGVGLNDCIRNAAQLADALVAGNTSHAP
modifications: Synthetic (Protoporphyrinogen IX oxidase (MxPPO) of Myxococcus xanthus)
B2: L332T + M365I: MxPPO (SEQ ID NO: 3) variant (protein)
chain: B1 chain with L170A, L332T, M365I
modifications: Synthetic (Protoporphyrinogen IX oxidase (MxPPO) of Myxococcus xanthus)
B3: I311M: MxPPO (SEQ ID NO: 3) variant (protein)
chain: B1 chain with L170A, I311M
modifications: Synthetic (Protoporphyrinogen IX oxidase (MxPPO) of Myxococcus xanthus)
B4: R95A + M365V: MxPPO (SEQ ID NO: 3) variant (protein)
chain: B1 chain with R95A, L170A, M365V
modifications: Synthetic (Protoporphyrinogen IX oxidase (MxPPO) of Myxococcus xanthus)
B5: I311M + M365V: MxPPO (SEQ ID NO: 3) variant (protein)
chain: B1 chain with L170A, I311M, M365V
modifications: Synthetic (Protoporphyrinogen IX oxidase (MxPPO) of Myxococcus xanthus)
B6: M365T: MxPPO (SEQ ID NO: 3) variant (protein)
chain: B1 chain with L170A, M365T
modifications: Synthetic (Protoporphyrinogen IX oxidase (MxPPO) of Myxococcus xanthus)
B7: L332T + M365V: MxPPO (SEQ ID NO: 3) variant (protein)
chain: B1 chain with L170A, L332T, M365V
modifications: Synthetic (Protoporphyrinogen IX oxidase (MxPPO) of Myxococcus xanthus)
B8: A170C + M365I: MxPPO (SEQ ID NO: 3) variant (protein)
chain: B1 chain with L170C, M365I
modifications: Synthetic (Protoporphyrinogen IX oxidase (MxPPO) of Myxococcus xanthus)
B9: R95A + M365I: MxPPO (SEQ ID NO: 3) variant (protein)
chain: B1 chain with R95A, L170A, M365I
modifications: Synthetic (Protoporphyrinogen IX oxidase (MxPPO) of Myxococcus xanthus)
B10: M365V: MxPPO (SEQ ID NO: 3) variant (protein)
chain: B1 chain with L170A, M365V
modifications: Synthetic (Protoporphyrinogen IX oxidase (MxPPO) of Myxococcus xanthus)
B11: I311M + M365I: MxPPO (SEQ ID NO: 3) variant (protein)
chain: B1 chain with L170A, I311M, M365I
modifications: Synthetic (Protoporphyrinogen IX oxidase (MxPPO) of Myxococcus xanthus)
B12: R95A + A170C + M365I: MxPPO (SEQ ID NO: 3) variant (protein)
chain: B1 chain with R95A, L170C, M365I
modifications: Synthetic (Protoporphyrinogen IX oxidase (MxPPO) of Myxococcus xanthus)
B13: R95A: MxPPO (SEQ ID NO: 3) variant (protein)
chain: B1 chain with R95A, L170A
modifications: Synthetic (Protoporphyrinogen IX oxidase (MxPPO) of Myxococcus xanthus)
B14: A170C + M365V: MxPPO (SEQ ID NO: 3) variant (protein)
chain: B1 chain with L170C, M365V
modifications: Synthetic (Protoporphyrinogen IX oxidase (MxPPO) of Myxococcus xanthus)
B15: R95A + I168C + M365I: MxPPO (SEQ ID NO: 3) variant (protein)
chain: B1 chain with R95A, I168C, L170A, M365I
modifications: Synthetic (Protoporphyrinogen IX oxidase (MxPPO) of Myxococcus xanthus)

Tests used:
[1] = tested on: MxPPO; assay: Herbicide tolerance test of MxPPO wild type and variants in PPO-deficient E. coli BT3(ΔPPO), growth on herbicide-containing LB agar; format: cell-based, Myxococcus xanthus; settings: relative to MxPPO WT, light; for Herbicide tolerance, saflufenacil: up to 200 μM (FIG. 13); for Herbicide tolerance, sulfentrazone: up to 1000 μM (FIGS. 18-20); for Herbicide tolerance, tiafenacil: 2000 μM (FIG. 14)
Description: Then, the extent of tolerance was evaluated.

[2] = tested on: MxPPO; assay: PPO enzyme activity of purified MBP-fused MxPPO wild type and variants; format: biochemical, Myxococcus xanthus; settings: PPO enzyme activity of purified MxPPO protein, relative to wild type
Description: Thus, PPO proteins of wild type and variants were expressed as fused to MBP and were used for experiments.
The following process for purification of PPO protein was performed in a 4° C. cold room. […] The column was washed with 3 column volumes of buffer and the presence of protein in the washing solution was examined. When the protein was no longer detected, the washing procedure was terminated. Then, the MBP-PPO protein was eluted with approximately 2 column volumes of buffer containing 20 mM maltose. The protein concentration of each eluent was determined and the elution was stopped when the protein was no longer detected. Ten microliter of each fraction was investigated for protein quantification and SDS-PAGE analysis. The highly pure fractions of PPO protein variants were used for the enzyme assay.
Since protoporphyrinogen IX, a substrate of PPO protein, was not commercially available, it was chemically synthesized in the laboratory. Overall process was performed in dark under nitrogen stream. […] of protoporphyrin IX was dissolved in 20 ml of 20% (v/v) EtOH, and stirred under dark condition for 30 minutes. The obtained protoporphyrin IX solution was put into a 15 ml screw tube in an amount of 800 μl, and flushed with nitrogen gas for 5 minutes. To this, 1.5 g of sodium amalgam was added and vigorously shaken for 2 minutes. The lid was opened to exhaust hydrogen gas in the tube. Thereafter, the lid was closed and incubated for 3 minutes. The protoporphyrinogen IX solution was filtered using syringe and cellulose membrane filter. To 600 μl of the obtained protoporphyrinogen IX solution, approximately 300 μl of 2M MOPS [3-(N-morpholino) propanesulfonic acid] was added to adjust pH to 8.0. To determine the enzyme activity of PPO protein, a reaction mixture was prepared with the following composition (based on 10 ml): 50 mM Tris-Cl (pH 8.0); 50 mM NaCl; 0.04% (v/v) Tween 20; 40 mM glucose (0.072 g); 5 units glucose oxidase (16.6 mg); and 10 units catalase (1 μl).
Hundred and eighty microliters of a reaction mixture […] were placed in 96 well plates and 20 μl of purified PPO proteins were added. After 50 μl of the mineral oil was layered, the reaction was initiated by adding the substrate, protoporphyrinogen IX solution, to a final concentration of 50 μM. The reaction proceeded at room temperature for 30 min and the fluorescence of protoporphyrin IX was measured using Microplate reader (Sense, Hidex) (excitation: 405 nm; emission: 633 nm). To calculate the PPO enzyme activity, the protoporphyrinogen IX solution was kept open in the air overnight to oxidize the solution. To this, 2.7 N HCl was added, and the absorbance at 408 nm was measured. A standard curve was generated using standard protoporphyrin IX, and PPO activity was measured by calibration of protoporphyrin IX using the standard curve of protoporphyrin IX.
Activities of variants were presented relatively compared to that of wild type.

Row | Molecule | Herbicide tolerance, flumioxazin ([1]; up to 100 μM (FIG. 13)) | Herbicide tolerance, saflufenacil [1] | Activity (%) [2] [%] | Herbicide tolerance, flumioxazin ([1]; up to 400 μM (FIGS. 15-17)) | Herbicide tolerance, sulfentrazone [1] | Herbicide tolerance, tiafenacil [1]
1 | B1 | ++ (10-99 fold higher tolerance) | ++ (10-99 fold higher tolerance) | 40 | – | – | –
2 | B2 | – | – | 80 | + (1-9 fold higher tolerance) | + (1-9 fold higher tolerance) | –
3 | B3 | ++ (10-99 fold higher tolerance) | ++ (10-99 fold higher tolerance) | 87 | – | – | –
4 | B4 | – | – | 40 | – | – | –
5 | B5 | – | – | 71 | ++ (10-99 fold higher tolerance) | + (1-9 fold higher tolerance) | + (1-9 fold higher tolerance)
6 | B6 | – | – | 52 | – | – | –
7 | B7 | – | – | 68 | + (1-9 fold higher tolerance) | + (1-9 fold higher tolerance) | + (1-9 fold higher tolerance)
8 | B8 | – | – | 78 | + (1-9 fold higher tolerance) | + (1-9 fold higher tolerance) | –
9 | B9 | – | – | 42 | – | – | –
10 | B10 | – | – | 77 | – | – | –
11 | B11 | – | – | 75 | ++ (10-99 fold higher tolerance) | + (1-9 fold higher tolerance) | + (1-9 fold higher tolerance)
12 | B12 | – | – | 41 | + (1-9 fold higher tolerance) | + (1-9 fold higher tolerance) | –
13 | B13 | – | – | 43 | – | – | –
14 | B14 | – | – | 71 | ++ (10-99 fold higher tolerance) | + (1-9 fold higher tolerance) | + (1-9 fold higher tolerance)
15 | B15 | – | – | 38 | + (1-9 fold higher tolerance) | + (1-9 fold higher tolerance) | –
